Measurements from patent US20260226158A1 (DE NOVO BIOTHERAPEUTICS, published 2026).
Residue numbers refer to the chain shown, from its start. Like-named read-outs stand apart in the source and are kept apart here. One block for each binder: values may come before it.

Key:
[1] = target: T1, 6506GJ130-1A: Human NKP46 Recombinant Protein (His) (human, UniProt O76036 22-258, limits assumed); experiment: ELISA on coated human NKp46 protein, HRP anti-human IgG, OD 450 nm [label printed at foot of D00002]]
T1 construct: also called human NKp46 protein; not shown: His tag
Method: (§1) Human NKp46 protein and monkey NKp46 protein were each added at a concentration of 0.5 μg/mL to a 96-well plate and reacted for 1 hour at 37° C., followed by three washes with an appropriate volume of washing solution (0.05% Tween20, PBS), and then treated with 150 μL of blocking solution (1% BSA, PBS) for 1 hour at 37° C. After washing three times with an appropriate volume of washing solution (0.05% Tween20, PBS), the wells were treated with 3 serial dilutions of 1 μg/mL of anti-human NKp46 antibody at the maximum concentration and reacted for 1 hour at 37° C. […] The degree of binding between antigen and antibody was detected with 3′,5,5′-tetramethylbenzidine solution. Finally, the reaction was stopped by adding 1M HCl, and the absorbance was measured at 450 nm using an ELISA reader (Thermo Fisher Scientific). Four antibodies (1-2, 1-4-2, 1-8, and 1-10) that specifically bind to human NKp46 and monkey NKp46 were selected by the above two binding tests.

monkey NKp46 protein [2] = target: monkey NKp46 protein (monkey); experiment: ELISA on coated monkey NKp46 protein (title 'Cyno NKp46'), HRP anti-human IgG, OD 450 nm
Method: as §1

monkey NKp46 protein [3] = target: monkey NKp46 protein (monkey); experiment: as above; remark: listed apart in the source
[4] = target: T1, 6506GJ130-1A: Human NKP46 Recombinant …; experiment: ELISA on coated human NKp46 protein (title 'Human NKp46'), HRP anti-human IgG, OD 450 nm [label printed on D00006]]

monkey NKp46 protein (monkey), sequence (Q95JB9 22-257): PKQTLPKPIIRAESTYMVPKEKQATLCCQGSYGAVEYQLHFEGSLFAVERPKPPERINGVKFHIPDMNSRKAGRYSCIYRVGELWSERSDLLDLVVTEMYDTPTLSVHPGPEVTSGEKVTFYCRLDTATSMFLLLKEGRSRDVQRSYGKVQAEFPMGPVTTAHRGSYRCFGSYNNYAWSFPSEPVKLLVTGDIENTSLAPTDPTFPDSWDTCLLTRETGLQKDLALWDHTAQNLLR
T1 sequence (O76036 22-258 limits assumed): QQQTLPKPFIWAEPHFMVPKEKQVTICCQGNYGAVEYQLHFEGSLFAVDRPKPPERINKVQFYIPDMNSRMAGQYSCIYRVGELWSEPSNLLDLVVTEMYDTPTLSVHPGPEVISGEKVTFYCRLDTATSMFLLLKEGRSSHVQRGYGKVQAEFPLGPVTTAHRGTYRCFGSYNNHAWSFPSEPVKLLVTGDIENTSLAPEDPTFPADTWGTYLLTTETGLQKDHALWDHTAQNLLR

B2: 32C9F4 (antibody, human IgG4 S228P, kappa, V domains shown)
VH: QVQLQQPGAELVKPGASVKLSCKASGYTFTSYWMHWVKQRPGQGLEWIGMIHPNSGVTKYNEKFKSKATLTVDKSSSTAYMQLSSLTSEDSAVYFCAGDGRFAYWGQGTLVTVSA
VL: DIQMTQSPSSLSASLGERVSLTCRASQDIGSSLNWLQQEPDGTIKRLIYATSSLDSGVPKRFSGSRSGSDYSLTISSLESEDFVDYYCLQYASSPWTFGGGTKLEIKR
notes: Hybridoma screening; also called 2-2
EC50 (read off the curve) (monkey NKp46 protein [3]): ~30 pM
EC50 (read off the curve) [4]: ~50 pM

B3: 28E10B12 (antibody, human IgG4 S228P, kappa, V domains shown)
VH: QVQLQQPGAELVKPGASVKLSCKASGYTFTSYWMNWVKQRPGQGLEWIGMIHPNSDITNYNEKFKSQATLTVDKSSSTAYMQLSSLTSEDSAVYYCARHGRFDYWGQGTTLTVSS
VL: B2 VL with S20T, W96F, G100S
notes: Hybridoma screening; also called 2-3
EC50 (read off the curve) (monkey NKp46 protein [3]): ~30 pM
EC50 (read off the curve) [4]: ~30 pM

B4: 45A10D5 (antibody, human IgG4 S228P, kappa, V domains shown)
VH: B2 VH with V57S, K59N, F95Y, A97V, G98Y
VL: B2 VL with W96F, G100S
notes: Hybridoma screening; also called 2-1
EC50 (read off the curve) (monkey NKp46 protein [3]): ~60 pM
EC50 (read off the curve) [4]: ~50 pM

Second part, the binder after the results:

EC50 (read off the curve) [1]: ~200 pM
EC50 (read off the curve) (monkey NKp46 protein [2]): ~200 pM
B1: u6506gj130-1-10 (antibody, human IgG4 S228P, kappa, V domains shown)
VH: QVQLQQPGAELVKPGASVKLSCKASGYIFTSYWMHWVKQRPGQGLEWIGMIHPNSGSTNYNEKFKSKATLTVDKSSSTAYMQLSSLTSEDSAVYYCAREGNWARGYFEYWGQGTTLTVSS
VL: DIKMTQSPSSMYASLGERVTITCKASQDINSYLSWFQQKPGKSPKTLIYRANRLVDGVPSRFSGSGSGQDYSLTISSLEYEDVGMYYCLQYDEFPYTFGGGTKLEIKR
notes: Beacon screening

EC50 (read off the curve) [1]: ~200 pM
B5: u6506gj130-1-2 (antibody, human IgG4 S228P, kappa, V domains shown)
VH: EVQLQQSGPELVKPGASVKISCQASGYTFTDYYLNWVKQSHGKSLEWIGDIDPHNGGTSYNQKFKDKATLTVDKSSSTAYMELRSLTSEDSAVYYCARFPIYYSGSSPMDYWGQGTSVTVSS
VL: DIQMTQSPASLSASVGETVTITCRTNENIFSYLAWYQQKQGKSPQLLVYNAKTLAEGVPSRFSGSASGTQFSLKINTLQPEDFGSYYCQHHYGTPYTFGGGTKLEIIR
notes: Beacon screening
